The test concerns the target HCMV trimeric gH/gL recombinant protein (human cytomegalovirus, strain Merlin | T4 phage) (UniProt F5HCH8). Nature of the test: native gel or EMSA. (In general: A gel shift assay detects complexes by their altered migration in electrophoresis.)

These results are taken from publication PMC6651862.

For orientation: stoichiometry N means a count of units in the complex or per binding partner. Take “HCMV trimeric gH/gL recombinant protein (from UniProt F5HCH8;Q6SW67)”: the stoichiometry N stood at 3.
